The target in the assay is immobilized gingipain (GP protein) of the anti-gingipain ELISA of Example 18. In words: ELISA on immobilized gingipain. In general terms: An ELISA detects its analyte on a solid surface through an enzyme-linked reagent.

The source of these data is US20250334585A1.

B1: KB001 (antibody, V domains shown)
VH: EVQLKQSGPGLVAPSQSLSITCTVSGFSLSIYSVHWVRQPPGKGLEWLGMIWGGGSSDYNSALKSRLSISKDNSKSQVFLKMNSLQTDDTAMYYCARNGNFYAMDYWGQGTSVTVSS
VL: QIVLTQSPAIMSASLGERVTMTCTASSSVSSSFLHWYQQKPGSSPQLWIYSTSNLASGVPARFSGSGSGTSYSLTISSMEAEDAATYYCHQYHHSPYIYTFGGGTKLEIKR
Molecule B1 gave a detectable level of concentration of 3 ng/mL.
